The Km is the substrate concentration at which the rate is half of its maximum.

The text below walks through data of patent publication US6632633B1, “Process for oxidation of steroids and genetically engineered cells used therein” (Aventis Pharma, S.A., priority 1988, dated 2003).

For data set [1], the target named is T1, cytochrome P450SCC (Bos taurus, UniProt P00189).
T1 construct: 1.5 μM of P450 SCC (purified from bovine adrenal cortex); from tissue; host or cells: bovine adrenal cortex
T1 sequence (P00189 40-520): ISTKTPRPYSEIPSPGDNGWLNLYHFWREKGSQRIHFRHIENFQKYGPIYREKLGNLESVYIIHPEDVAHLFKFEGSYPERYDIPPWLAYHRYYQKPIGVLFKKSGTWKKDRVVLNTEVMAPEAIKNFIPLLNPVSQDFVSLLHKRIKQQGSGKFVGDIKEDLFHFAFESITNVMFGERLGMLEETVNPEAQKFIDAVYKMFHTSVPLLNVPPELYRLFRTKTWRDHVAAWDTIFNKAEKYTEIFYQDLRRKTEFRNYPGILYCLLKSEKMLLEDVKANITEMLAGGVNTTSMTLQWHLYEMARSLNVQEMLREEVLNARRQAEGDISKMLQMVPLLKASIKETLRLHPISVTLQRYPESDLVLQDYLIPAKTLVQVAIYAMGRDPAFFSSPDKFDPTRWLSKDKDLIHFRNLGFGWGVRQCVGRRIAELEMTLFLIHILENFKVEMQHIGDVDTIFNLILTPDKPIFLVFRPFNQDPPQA
The experiment in a line: ADX activity (electron transfer from adrenodoxin reductase to cytochrome P450SCC) in cell-free extracts by P450SCC activity assay. In kind it is biochemical, bovine. The conditions noted are these: within 15 minutes at 30° C. The protocol: K. lactis ADX-102, obtained as described in Example 23, and control strain K. lactis CBS 2360 were grown in 100 ml of YEPD medium (1% yeast extract, 2% peptone, 2% glucose monohydrate) containing 2.5 ml of a 6.7% (w/w) yeast nitrogen base (Difco laboratories) solution and 100 mg 1^−1 of geneticin (G418 sulfate; Gibco Ltd.), for 56 hours at 30° C. The cells were collected by centrifugation (4,000×g, 15 minutes), resuspended in a physiological salt solution and washed with a phosphate buffer (pH 7.0, 50 mM). After centrifugation (4,000×g, 15 minutes), the pellet was resuspended in a phosphate buffer (pH 7.0, 50 mM) resulting in a suspension containing 0.5 g cell wet weight/ml. The cells were disrupted using a Braun MSK Homogenizer (6×15 seconds, 0.45-0.50 mm glass beads) and unbroken cells were removed by centrifugation (4,000×g, 15 minutes). […]
ADX activity, i.e. electrotransfer capacity from adrenodoxin reductase to cytochrome P450SCC, in the cell-free extracts was determined by a P450SCC activity assay. […]
The assay was started by mixing 75 μl of solution A with 50 μl of solution B and 125 μl of cell-free extract or 125 μl of a potassium phosphate buffer (50 mM, pH 7.0) containing 10 μM ADX (purified from bovine adrenal cortex). […] The suspension was heated for 15 minutes at 120° C. and then, the ^14C/^3H ratio was determined by double label liquid scintillation counting. […]

Data set [2] deals with T2, Bovine adrenodoxin (ADX), mature protein with added methionine start, expressed in K. lactis from pGBADX-1 or pGBSCC/ADX-1, P00257.
T2 chain: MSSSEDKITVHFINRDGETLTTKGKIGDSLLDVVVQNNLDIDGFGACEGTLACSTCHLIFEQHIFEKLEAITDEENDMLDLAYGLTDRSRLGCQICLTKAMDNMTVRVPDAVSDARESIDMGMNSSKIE

The target of data set [3] is T3, ADX purified from bovine adrenal cortex, P00257.
T3 chain: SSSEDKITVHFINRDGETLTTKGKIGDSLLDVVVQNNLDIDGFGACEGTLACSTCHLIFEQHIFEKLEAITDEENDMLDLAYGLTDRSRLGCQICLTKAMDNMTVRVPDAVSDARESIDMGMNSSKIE

The test system of data set [4] is pregnenolone. The conditions noted are these: after expression in HeLa cells of the respective cDNA's; cited from earlier work.

B1: purified ADX: adrenodoxin purified from bovine adrenal cortex, 10 μM in buffer (protein)
chain: T3 chain
On to B1, for which the “yield of cholesterol side chain cleavage” value in data set [1] is listed as 50%.

B2: Bovine cytochrome P450 side chain cleavage enzyme (P450SCC), mature protein with added methionine start, expressed recombinantly (pGBSCC-5, pGBSCC-17, … (protein)
chain: MISTKTPRPYSEIPSPGDNGWLNLYHFWREKGSQRIHFRHIENFQKYGPIYREKLGNLESVYIIHPEDVAHLFKFEGSYPERYDIPPWLAYHRYYQKPIGVLFKKSGTWKKDRVVLNTEVMAPEAIKNFIPLLNPVSQDFVSLLHKRIKQQGSGKFVGDIKEDLFHFAFESITNVMFGERLGMLEETVNPEAQKFIDAVYKMFHTSVPLLNVPPELYRLFRTKTWRDHVAAWDTIFNKAEKYTEIFYQDLRRKTEFRNYPGILYCLLKSEKMLLEDVKANITEMLAGGVNTTSMTLQWHLYEMARSLNVQEMLREEVLNARRQAEGDISKMLQMVPLLKASIKETLRLHPISVTLQRYPESDLVLQDYLIPAKTLVQVAIYAMGRDPAFFSSPDKFDPTRWLSKDKDLIHFRNLGFGWGVRQCVGRRIAELEMTLFLIHILENFKVEMQHIGDVDTIFNLILTPDKPIFLVFRPFNQDPPQA
Regarding B2, the “cholesterol side-chain cleaving reaction in the presence of NADPH and ADR” value in data set [2] is listed as “cholesterol side-chain cleaving activity was demonstrated in the cell-free extract of K. lactis SCC/ADX-101, whereas the cell-free extract of K. lactis SCC-101, no activity was detectable”.

B3: P450SCC purified from bovine adrenal cortex (protein)
chain: T1 sequence (P00189 40-520)
With B3, the “side chain cleavage of cholesterol (P450SCC activity assay, 14C/3H ratio)” value in data set [3] and in data set [2] was “the side chain of the cholesterol was cleaved within 15 minutes in a yield of 50%” each time.

B4: P450SCC expressed from pre-P450SCC encoding DNA in yeast (pGBSCC-12 in K. lactis, pGBSCC-13 in S. cerevisiae SCC-105) (protein)
chain: MLARGLPLRSALVKACPPILSTVGEGWGHHRVGTGEGAGISTKTPRPYSEIPSPGDNGWLNLYHFWREKGSQRIHFRHIENFQKYGPIYREKLGNLESVYIIHPEDVAHLFKFEGSYPERYDIPPWLAYHRYYQKPIGVLFKKSGTWKKDRVVLNTEVMAPEAIKNFIPLLNPVSQDFVSLLHKRIKQQGSGKFVGDIKEDLFHFAFESITNVMFGERLGMLEETVNPEAQKFIDAVYKMFHTSVPLLNVPPELYRLFRTKTWRDHVAAWDTIFNKAEKYTEIFYQDLRRKTEFRNYPGILYCLLKSEKMLLEDVKANITEMLAGGVNTTSMTLQWHLYEMARSLNVQEMLREEVLNARRQAEGDISKMLQMVPLLKASIKETLRLHPISVTLQRYPESDLVLQDYLIPAKTLVQVAIYAMGRDPAFFSSPDKFDPTRWLSKDKDLIHFRNLGFGWGVRQCVGRRIAELEMTLFLIHILENFKVEMQHIGDVDTIFNLILTPDKPIFLVFRPFNQDPPQA
As to B4, in data set [3], the “side chain cleavage of cholesterol (P450SCC activity assay, 14C/3H ratio)” value was “During 3 hours of incubation, 45% of the cholesterol had been converted”.

B5: adrenodoxin reductase purified from bovine adrenal cortex (protein)
chain: STQEQTPQICVVGSGPAGFYTAQHLLKHHSRAHVDIYEKQLVPFGLVRFGVAPDHPEVKNVINTFTQTARSDRCAFYGNVEVGRDVTVQELQDAYHAVVLSYGAEDHQALDIPGEELPGVFSARAFVGWYNGLPENRELAPDLSCDTAVILGQGNVALDVARILLTPPDHLEKTDITEAALGALRQSRVKTVWIVGRRGPLQVAFTIKELREMIQLPGTRPMLDPADFLGLQDRIKEAARPRKRLMELLLRTATEKPGVEEAARRASASRAWGLRFFRSPQQVLPSPDGRRAAGIRLAVTRLEGIGEATRAVPTGDVEDLPCGLVLSSIGYKSRPIDPSVPFDPKLGVVPNMEGRVVDVPGLYCSGWVKRGPTGVITTTMTDSFLTGQILLQDLKAGHLPSGPRPGSAFIKALLDSRGVWPVSFSDWEKLDAEEVSRGQASGKPREKLLDPQEMLRLLGH
In the case of B5, the “side chain cleavage of cholesterol (P450SCC activity assay, 14C/3H ratio)” value in data set [3] and in data set [2] was “the side chain of the cholesterol was cleaved within 15 minutes in a yield of 50%” in each case.

B6: type I enzyme: human 3β-hydroxy-5-ene steroid dehydrogenase/5-ene-4-ene isomerase type I, isolated from placenta, also expressed in skin (protein, UniProt P14060 2-373, looked up)
3 beta-hydroxysteroid …: TGWSCLVTGAGGFLGQRIIRLLVKEKELKEIRVLDKAFGPELREEFSKLQNKTKLTVLEGDILDEPFLKRACQDVSVIIHTACIIDVFGVTHRESIMNVNVKGTQLLLEACVQASVPVFIYTSSIEVAGPNSYKEIIQNGHEEEPLENTWPAPYPHSKKLAEKAVLAANGWNLKNGGTLYTCALRPMYIYGEGSRFLSASINEALNNNGILSSVGKFSTVNPVYVGNVAWAHILALRALQDPKKAPSIRGQFYYISDDTPHQSYDNLNYTLSKEFGLRLDSRWSFPLSLMYWIGFLLEIVSFLLRPIYTYRPPFNRHIVTLSNSVFTFSYKKAQRDLAYKPLYSWEEAKQKTVEWVGSLVDRHKETLKSKTQ
For B6, the Km in data set [4] was 0.24 µM.

B7: type II 3β HSDH: human 3β HSDH type II, isolated from adrenals and gonads (protein, UniProt P26439 1-372, looked up)
3 beta-hydroxysteroid …: MGWSCLVTGAGGLLGQRIVRLLVEEKELKEIRALDKAFRPELREEFSKLQNRTKLTVLEGDILDEPFLKRACQDVSVVIHTACIIDVFGVTHRESIMNVNVKGTQLLLEACVQASVPVFIYTSSIEVAGPNSYKEIIQNGHEEEPLENTWPTPYPYSKKLAEKAVLAANGWNLKNGDTLYTCALRPTYIYGEGGPFLSASINEALNNNGILSSVGKFSTVNPVYVGNVAWAHILALRALRDPKKAPSVRGQFYYISDDTPHQSYDNLNYILSKEFGLRLDSRWSLPLTLMYWIGFLLEVVSFLLSPIYSYQPPFNRHTVTLSNSVFTFSYKKAQRDLAYKPLYSWEEAKQKTVEWVGSLVDRHKETLKSKTQ
In the case of B7, the Km in data set [4] was 1.2 µM.
